T1: huCD300F constitutively expressed on 293 Freestyle (Freestyle HEK) cells (human, UniProt Q8TDQ1 20-290)
T1 construct: also called huCD300LF; Human CD300F
T1 sequence: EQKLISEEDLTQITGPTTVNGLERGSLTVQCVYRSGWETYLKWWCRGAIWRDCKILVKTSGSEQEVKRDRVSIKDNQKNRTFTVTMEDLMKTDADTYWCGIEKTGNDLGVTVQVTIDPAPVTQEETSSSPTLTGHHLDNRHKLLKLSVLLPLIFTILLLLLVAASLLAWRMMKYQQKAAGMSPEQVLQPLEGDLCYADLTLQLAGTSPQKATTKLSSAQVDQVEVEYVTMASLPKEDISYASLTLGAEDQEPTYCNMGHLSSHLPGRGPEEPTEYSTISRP

T2: murine CD300LB-Fc (mouse)
T2 construct: mouse IgG2a-Fc fusion (R&D Systems); the entry is the whole fusion chain; also called mCD300LB; Mouse CD300LB-Fc
T2 chain: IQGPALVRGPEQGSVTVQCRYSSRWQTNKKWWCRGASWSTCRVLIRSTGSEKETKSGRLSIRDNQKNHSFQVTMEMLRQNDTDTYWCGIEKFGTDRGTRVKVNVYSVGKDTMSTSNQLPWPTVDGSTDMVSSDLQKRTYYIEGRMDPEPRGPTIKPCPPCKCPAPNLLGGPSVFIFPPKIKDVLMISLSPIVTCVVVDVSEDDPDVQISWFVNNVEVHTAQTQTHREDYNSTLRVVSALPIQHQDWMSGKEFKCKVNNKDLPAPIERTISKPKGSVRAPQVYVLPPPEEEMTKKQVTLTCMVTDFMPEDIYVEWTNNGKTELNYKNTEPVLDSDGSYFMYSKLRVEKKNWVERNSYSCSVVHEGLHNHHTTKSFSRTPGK

T3: murine CD300LB stably expressed on Jurkat cells (mouse, UniProt Q3U497 18-209)
T3 construct: also called muCD300LB; mouse CD300LB
T3 sequence: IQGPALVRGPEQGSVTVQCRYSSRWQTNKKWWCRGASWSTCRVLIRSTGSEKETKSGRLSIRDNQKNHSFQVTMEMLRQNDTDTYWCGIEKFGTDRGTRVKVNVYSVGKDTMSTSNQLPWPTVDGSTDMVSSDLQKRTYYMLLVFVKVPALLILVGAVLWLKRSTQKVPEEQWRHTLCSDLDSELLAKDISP


What was measured:
[1] = target: T1, huCD300F constitutively expressed on …; test: flow cytometry, stable Freestyle HEK cells
Method: (§1) Other members of the human CD300 family share sequence homology with human CD300LB. Thus, counter screens against binding of the anti-CD300LB antibodies to huCD300A, huCD300C, huCD300LD, huCD300E, huCD300LF, and huCD300G by stable overexpression in Freestyle HEK cells (generation of which is described above) were performed as follows. Cells were counted and labeled with 200 nM CFSE, 500 nM VioBlue, or a combination of the two to discriminate between CD300LB, Parental cells, and the other CD300 family members. Cells were washed thoroughly with PBS containing 2% fetal bovine serum then resuspended at a total of 240,000 cells per well. Hybridoma supernatants (100 L) or purified antibodies at various concentrations were added and incubated for one hour before the cells were washed twice again and stained with an APC-labeled anti-human or anti-mouse secondary antibody. Cells were then analyzed using a BD FACSCanto II. Anti-CD300LB antibodies were analyzed for specific binding to human CD300LB by FlowJo software by gating on live cells, then the APC geometric mean fluorescence intensity (gMFI) calculated for each labeled population. The results are shown in […]
(§2) Freestyle HEK cells were transfected with huCD300A, huCD300C, huCD300D, huCD300E, and huCD300G separately. Then, five stable cell lines from these transfections were pooled; the combined cells are herein known as CD300A/C/D/E/G. Freestyle HEK cells were also transfected with huCD300LB and huCD300F. All transfected cells were then tested for binding of anti-CD300LB antibodies of the present disclosure.

[2] = target: T4, huCD300LB-DAP12 fusion constitutively expressed on 293 Freestyle (Freestyle HEK) cells (human); test: flow cytometry, stable Freestyle HEK cells
T4 construct: also called Human CD300LB-DAP12 chimera
Method: as §1, §2

[3] = target: T2, murine CD300LB-Fc; test: SPR (Carterra LSA), antibody immobilised, Fc fusion at 300 or 600 nM
Method: Binding of mouse anti-CD300LB IgG1 antibodies of the present disclosure to human and murine CD300 orthologs were evaluated by surface plasmon resonance (SPR) using a Carterra LSA instrument (Carterra, Salt Lake City, UT). […] A HC200M sensor chip (Carterra) was activated using the single channel flow cell with a 7-minute injection of a 1:1:1 mixture of 100 mM MES pH 5.5, 100 mM sulfo-NHS, 400 mM EDC (all reconstituted in MES pH 5.5; 100 μL of each mixed in vial immediately before running assay). After switching to the multi-channel array flow cell, the antibodies were injected over the activated chip in a 96-spot array for 10 minutes. The remaining unconjugated active groups on the chip were then blocked by injecting 1M Ethanolamine pH 8.5 (Carterra) for 7 minutes using the single channel flow cell. After priming with running buffer (HBS-TE, Carterra) with 0.5 mg/ml BSA (Sigma), the immobilized anti-CD300LB antibodies were tested for their ability to bind human and mouse recombinant CD300LB extracellular domains. Human CD300 family members and mouse CD300A were hIgG1-Fc fusions, while mouse CD300LB, mouse CD300C, mouse CD300D, and mouse CD300E were mouse IgG2a-Fc fusions (R&D Systems). Binding was assessed by injecting each analyte over the entire antibody array using the single channel flow cell. CD300 analytes were diluted to 300 nM or 600 nM in running buffer and injected in series without regeneration. Two or three buffer blanks were run between each mouse or human ortholog, respectively. Data were processed and analyzed using NextGenKIT high-throughput kinetics analysis software (Carterra).
Results of anti-CD300LB antibody binding to murine CD300 family members is provided below in Table 8.

[4] = target: T3, murine CD300LB stably expressed on …; test: flow cytometry, stable Jurkat cells, 10 ug/mL, isotype subtracted
Method: Purified anti-CD300LB antibodies of the present disclosure were analyzed for cross-reactivity to other murine CD300 family members stably expressed in Jurkat cells (generation of which is described above). Cells were counted and labeled with 200 nM CFSE, 500 nM VioBlue, or a combination of the two to discriminate between muCD300LB, Parental cells, CD300F, and the other CD300 family members. Cells were washed thoroughly with PBS containing 2% fetal bovine serum then resuspended at a total of 240,000 cells per well. Purified antibodies at 10 μg/mL were added and incubated for one hour before the cells were washed twice again and stained with an APC-labeled anti-mouse secondary. Cells were then analyzed using a BD FACSCanto II. Antibodies were analyzed for specific binding to muCD300LB by FlowJo software by gating on live cells, then the APC gMFI calculated for each labeled population by subtracting the gMFI of the isotype control. The gMFI results of the analysis are presented below in Table 4.

| Binder | binding result [1] | gMFI [1] [gMFI] | gMFI [2] [gMFI] | SPR binding (control subtracted) [3] | gMFI [4] [gMFI] |
| --- | --- | --- | --- | --- | --- |
| anti-CD300LB antibody CD-02 (antibody, V domains shown) VH: QVQLQQPGAELVRPGSSVKLSCQASGYTFTNYWMHWVRQRPIQGLEWIGNIDPSDSETHYNQKFKDRATLTVDKSSSTAYMQLSSLTSEDSAVYYCARSGVYDDEGGDYWGQGTTLTVSS VL: ENVLTQSPAIMSASPGEKVTMTCSASSSVSYIHWYQQKSSTSPKLWIYDTSKLASGVPGRFSGSGSGNSYSLTISSMETEDVATYYCFQGSGYPLTFGAGTKLELK |  | -93 | 108 |  |  |
| anti-CD300LB antibody CD-12 (antibody, V domains shown) VH: QIQLVQSGPELKKPGETVKISCKASGYTFTDYSMHWVRQAPGKGLKWMAWINTETGEATHADDFKGRFDFSLDTSASTAYLQIKNLKNEDTGIYFCVCYGSSYGMDYWGQGTSVTVSS VL: DIVLTQSPASLPVSLGQRATISCRASKSVRTSGASYMHWYQQKPGQPPKLLIYLASNLKSGVPTRFSGSGSGTDFTLNIHPVEEEDAATYYCQHNREVPPTFGGGTKLEIK |  |  |  | 43.2 | 4210 |
| anti-CD300LB antibody CD-13 (antibody, V domains shown) VH: QIQLVQSGPELKKPGETVKISCKASGYTFTDYSMHWVKQAPGKGFKWMAWINTETGAPTHADDFRGRFAFSLETSASTAFLQISNLKTEDTATYFCVTFGKSYGMNYWGQGTSVTVSS VL: DIVLTQSPASLSVSLGQRATISCRASKSVGSSGSSYLHWYQQKPGQPPKLLIYLASNLESGVPARFSGSGSGTEFTLNIHPVEEEDAATYYCQHNAEVPPTFGGGTKLEIK |  |  |  | 82.4 | 7600 |
| anti-CD300LB antibody CD-11 (antibody, V domains shown) VH: QIQLVQSGPEVKKPGETVKISCKASGYTLTDYSMHWVMQTPGTGLKWMAWMNTETGEPTYADDFKGRFAFSLETSAGTAYLQIDNLKNEDTATYFCATYGKSYGMKYWGQGTSVTVSS VL: DIVLTQSPPSLAVSLGQRATISCRATKSVSPYLHWYQQTPGQPPKLLIYLASNLDSGVPARFSGSGSGTDFTLNIHPVEEEDAATYYCQHNKELPPTFGGGTRLEIK |  |  |  | 87.7 | 4660 |
| anti-CD300LB antibody CD-01 (antibody, V domains shown) VH: RVQLQQSGAELVRPGASVTLSCKASGFTFTDFEMHWVKKTPVHGLEWIGAIDPESGNTAYNQKFRGKATLTADKSSSTAYMELRYLTSEDSAVYYCTPLISGADYWGQGTTLTVSS VL: DVVMTQSPLSLPVSLGDQASISCRSSQSLVHSDGNTYLYWYLQKPGQSPKLLIYKVSNRFSGVPDRFSGSGSGTDFTFKISRVGAEDLGVYFCSQSTHVPWTFGGGTKLEII |  | -26 | 45 |  |  |

Continued, values first:

| binding result [1] | gMFI [1] [gMFI] | gMFI [2] [gMFI] | SPR binding (control subtracted) [3] | gMFI [4] [gMFI] | Binder |
| --- | --- | --- | --- | --- | --- |
| no binding | 112 | 31500 |  |  | anti-CD300LB antibody CD-07 (antibody, V domains shown) VH: QVQLVQSGAEVKKPGASVKVSCKASGYTFTNYRMHWVRQAPGQGLEWMGWINPNSGGTIYAQKFQGRVTMTRDTSTSTVYMELSSLRSEDTAVYYCARDLDYWGQGTLVTVSS VL: DIQMTQSPSSLSASVGDRVTITCQASQDISNYLNWYQQKPGKAPKLLIYGASSLQSGVPSRFSGSGSGTDFTLTISSLQPEDFATYYCQQSYSTPWTFGPGTKVEIK |
| no binding | 886 | 80900 |  |  | anti-CD300LB antibody CD-06 (antibody, V domains shown) VH: QVQLVQSGAEVKKPGASVKVSCKASGYTFTTYAVHWVRQAPGQGLEWMGIVNPNSGGTNYAQKFQGRVTMTRDTSTSTVYMELSSLRSEDTAVYYCARDIVPMNNFYNYYYGMDVWGQGTTVTVSS VL: DIQMTQSPSSLSASVGDRVTITCRASQSISSYLNWYQQKPGKAPKLLIYATSTLQSGVPSRFSGSGSGTDFTLTISSLQPEDFATYYCQQSYRIPYTFGQGTKVEIK |
| no binding | 2730 | 113000 |  |  | anti-CD300LB antibody CD-05 (antibody, V domains shown) VH: QVQLVQSGAEVKKPGASVKVSCKASGYTFSRYYINWVRQAPGQGLEWMGWINPNSGGTNYAQKFQGRVTMTRDTSTSTVYMELSSLRSEDTAVYYCTTDQLRFGKTGPYYGMDVWGQGTTVTVSS VL: DIQMTQSPSSLSASVGDRVTITCRASQNIGTYLNWYQQKPGKAPKLLIYAASSLQSGVPSRFSGSGSGTDFTLTISSLQPEDFATYYCQQSYSDTLTFGGGTKVEIK |
|  |  |  | 29 | 9550 | anti-CD300LB antibody CD-14 (antibody, V domains shown) VH: QIQLVQSGPELKKPGETVKISCKASGYTFTDYSLHWVKQTPEKNLKWMAWINTETGAPTYADDFKGRFAFSLETSSNTAYLLINNLKNEDTATYFCALTMVNYWGQGTTLTVSS VL: DIVMTQSQKFMSTSVGDRVSVTCKASQNVGIRVAWHQQKPGQSPKTLIYSTSYRYSGVPDRFTGSGSGTEFILTISNVQSEDLAEYFCQQYNSYPYTFGGGTKLEIK |
|  |  |  | 50 | 4140 | anti-CD300LB antibody CD-15 (antibody, V domains shown) VH: QIQLVQSGPELKKPGETVKISCQVSGYTFTDYSMHWLKQAPGKGLKWMAWINTETGESTYTDEFKGRFVFSLETSVRTAYLKINNLKNEDTATYFCGTYGSSYGMAYWGQGTSVTVSS VL: DIVLTQSPASLPVSLGQRATISCRASKSVSTSGSSYLHWYQQKPGQPPKLLIYLASKLESGVPARFRGSGSGTDFTLNIHPVEEEDAATYYCQHNREVPPTFGGGTKLEIK |
| no binding | 2090 | 163000 |  |  | anti-CD300LB antibody CD-03 (antibody, V domains shown) VH: EVQLQQSGPELVKPGASVKISCKASGYTFTDYYINWVRQSHGKSLECIGDINPNNGGTNYNQKFKGKATLTVDRSSNTAYMEFRSLTFDDSALYYCAAEGAYWGQGTLVTVSA VL: not shown |

Reference: US20240254227A1 (Alector, published 2024)
